{"source": "patent US9670264B2", "about": "“Water soluble G-protein coupled receptor” (The Trustees of The University of Pennsylvania, priority 2013, dated 2017)", "key": {"[1]": {"assay": "Secondary structure by circular dichroism (CD)", "type": "physicochemical", "settings": "CD 205-260 nm", "description": "The CD spectra indicated predominantly helical structures with a helical secondary structure content of ˜48% (estimations based on the molar ellipticity over the range 205 to 260 nm). The comparison of the helical content with that of the native human MUR expressed in yeast system in the presence of high concentration of detergent (0.1% SDS) is presented in Table 1."}, "[2]": {"assay": "Thermostability monitored by CD (222 nm)", "type": "physicochemical", "settings": "5 mM sodium phosphate, pH=7.0; for melting point: 0.01% SDS", "procedure": "The secondary structure of the water-soluble variant was determined through circular dichroism (CD). Circular dichroism (CD) spectra were recorded by using CD Spectrometer (Chirascan, AppliedPhotophysics Limited, Leatherhead, United Kingdom) with a scan speed of 1 nm/s and 1 mm path length. Corresponding blanks were used for calibration for each assay and subtracted from raw data. Two data sets were recorded and averaged to increase the signal-to-noise ratio. The CDNN CD spectra deconvolution software was utilized to determine the secondary structure content of the proteins. […] Absorbance was maintained lower than 1.0 to ensure sufficient light transmission. The temperature-dependence curve was plotted using GraphPad Prism® (version 5, GraphPad Software, Inc. La Jolla)."}, "[3]": {"assay": "Effects of denaturant (urea) and reducing agent (2-ME), by CD and intrinsic tryptophan fluorescence", "type": "physicochemical", "experimental": "CD and intrinsic tryptophan fluorescence were used to probe disulfide bond formation in the water-soluble variant. […] Even in 8 M urea, the protein retains some helical structure (Table 2). Upon addition of 2-ME, both the molar ellipticity and fluorescence further decreased, becoming more pronounced at the higher concentration of the reducing agent (200 mM). Thus the presence of an intramolecular disulfide bond is corroborated in the case of wsMUR-TM.\nOf particular interest are the tryptophan residues located in the partially buried transmembrane locations of the model structure (positions 194, 295, and 320). The fluorescence associated with these residues is expected to be sensitive to the local hydrophobic environment and overall folding of the protein.\nThe decrease of the tryptophan fluorescence under denaturing conditions and in the presence of 2-ME is consistent with the changes in CD spectra observed under similar conditions. The requirement of the reducing agent to fully denature and unfold the protein indicates the relevance of an intramolecular disulfide bond in stabilizing the receptor structure. […] However, the CD and ligand-binding studies are consistent with the adoption of the proper protein tertiary structure and by extension with the formation of the correct disulfide bond."}, "[4]": {"tested_on": "human μ opioid receptor expressed in HEK293 cells", "assay": "Binding competition assay (TR-FRET/HTRF) between native human μ opioid receptor and water-soluble variants, with a fluorescent naltrexone-derived antagonist", "settings": "FIG. 10, as for FIG. 7", "description": "FIG. 7. […] Data is used to calculate HTRF ratios, and represent the mean±standard error of mean of quadruplicates. ΔF is used for the comparison of different runs of the same assay which reflects the signal to background of the assay. ΔF=[(Ratiosample−Ratiobackgroud)/Ratiobackgroud] (%).\nA recently developed methodology which uses a fluorescently labeled ligand and the native MUR was used to investigate the ligand-binding capabilities of the water-soluble receptors."}, "[5]": {"settings": "pH 7.0 + 0.1% SDS, expressed in yeast system"}, "[6]": {"settings": "None (no denaturant or reducing agent; normalisation reference)"}}}
{"molecule": "Native MUR: native human μ receptor expressed in yeast system, in 0.1% SDS [reference compound]", "values": [{"measurement": "Helix content", "setting": "[1]; [5]", "result": 40.6, "unit": "%"}, {"measurement": "Others content", "setting": "[1]; [5]", "result": 40.5, "unit": "%"}, {"measurement": "Turn content", "setting": "[1]; [5]", "result": 18.9, "unit": "%"}]}
{"molecule": "wsMUR-TM: computationally designed transmembrane-only water-soluble variant of the human μ opioid receptor (protein) SMITAIKIHEEYKKVCEEGKKGNKLVMEVIVRYTKMKTATNIYIFNLAKADALAESTLPFQSVNKLMGTWPFGTILCKKVISIDYYNMFTSIFTLCTMSVDRYIAVCHPVKALDFRTPRNAKEENEKNWKLSSEIGKPVEKKATTKYRQGSIDCTLTFSHPTWYWEDKLKDEVFKKAFEEPVKKIKECYGLMILRLKSVRMLSGSKEKDRNLRRITRMVLVVVEVFIKCWTEIHKYVKEGKLVTIPETTFQTVSWHECIAKGYKNSCENPKLYEELDENFKRCFREFC", "values": [{"measurement": "Helix content", "setting": "[1]; pH 7.0 in NaHPO4", "result": 48.0, "unit": "%"}, {"measurement": "Others content", "setting": "[1]; pH 7.0 in NaHPO4", "result": 37.4, "unit": "%"}, {"measurement": "Turn content", "setting": "[1]; pH 7.0 in NaHPO4", "result": 14.6, "unit": "%"}, {"measurement": "temperature at which almost fully unfolded (almost complete loss in molar ellipticity)", "setting": "[2]; 10 to 90° C.", "result": 90, "unit": "°C"}, {"measurement": "temperature at which ellipticity starts to be lost significantly", "setting": "[2]; 10 to 90° C.", "result": "~62", "unit": "°C"}, {"measurement": "melting point", "setting": "[2]; absence of cholesterol", "result": 82.9, "unit": "°C"}, {"measurement": "melting point", "setting": "[2]; presence of cholesterol", "result": 89.3, "unit": "°C"}, {"measurement": "Fluorescence Peak Intensity (%; 300-350 nm)", "setting": "[3]; [6]", "result": 100.0, "unit": "%"}, {"measurement": "Molar Ellipticity (%; 222 nm)", "setting": "[3]; [6]", "result": 100.0, "unit": "%"}, {"measurement": "Fluorescence Peak Intensity (%; 300-350 nm)", "setting": "[3]; Urea (8M)", "result": 28.4, "unit": "%"}, {"measurement": "Molar Ellipticity (%; 222 nm)", "setting": "[3]; Urea (8M)", "result": 40.0, "unit": "%"}, {"measurement": "Fluorescence Peak Intensity (%; 300-350 nm)", "setting": "[3]; Urea (8M) 2-ME (25 mM)", "result": 23.9, "unit": "%"}, {"measurement": "Molar Ellipticity (%; 222 nm)", "setting": "[3]; Urea (8M) 2-ME (25 mM)", "result": 25.1, "unit": "%"}, {"measurement": "Fluorescence Peak Intensity (%; 300-350 nm)", "setting": "[3]; Urea (8M) 2-ME (200 mM)", "result": 4.5, "unit": "%"}, {"measurement": "Molar Ellipticity (%; 222 nm)", "setting": "[3]; Urea (8M) 2-ME (200 mM)", "result": 0.0, "unit": "%"}]}
{"molecule": "wsMUR-TM+7mut: second wsMUR recombinant protein (protein) SMITAIKILEEYKKVCEEGRKGNKLVMEVIVRYTKMKTATNIYIFNLAKADALAESTLPFQSVNKLMGTWPFGTILCKKVISIDYYNMFTSIFTLCTMSVDRYIAVCHPVKALDFRTPRNAKEHNEKNWKLSSEIGKPVEKRATTKYRQGSIDCTLTFSHPTWYWEDKLKDTVFKKAFEEPVKVIKECYGLMILRLKSVRMLSGSKEKDRNLRRITRMVLVVVEVFIKCWTEIHKYVKEGKL", "values": [{"measurement": "binding activity (interaction with naltrexone)", "setting": "[4]", "result": "binding activity was also observed"}]}
